Measurements published in US12331110B2, “Monoclonal antibodies against endotrophin and the use thereof” (THE BOARD OF REGENTS OF THE UNIVERSITY OF TEXAS SYSTEM, priority 2018, dated 2025).

Assays:
MCF7 cells = assay: MCF7 tumor growth in nude mice; format: in vivo; conditions: 2.5 mg/kg cisplatin once a week, estradiol pellet
Description: FIGS. 5A-C. Antibody effects on ETP-MCF7 cells in vivo. (FIG. 5A) ETP transfected MCF7 cells (2×10^6 cells) were implanted into nude mice. An estradiol pellet (0.72 mg) was implanted into nude mice. Then (i) 20 mg/kg ETPmAb4, (ii) 10 mg/kg ETPmAb4 with 10 mg/kg control IgG, (iii) 5 mg/kg ETPmAb4 with 15 mg/kg control IgG, (iv) 2 mg/kg ETPmAb4 with 18 mg/kg control IgG, and (v) 20 mg/kg control IgG (twice a week) were injected after 10-days implantation for 5-weeks. Tumor volume was determined by caliper measurement. Data was represented as mean±SD (n=5/group), and *** p<0.0001 by ANOVA followed by Newman-Keuls multiple comparison test. (FIG. 5B) Total RNA was prepared from tumor tissues from ETP transfected MCF7, ETPmAb4 treatment mice. The EMT markers genes Twist, Snail, Cdh2 and Cdh 1 were determined by qRT-PCR, then normalized to GAPDH. […] Tumor volume was determined by caliper measurement. […]
(§1) Animal experiments. […] Tumors were measured twice a week, beginning 10 days after injection, and tumor volume was calculated by length×(width) 2/2 (mm^3).
(§2) Analysis of Tumor Progression. Tumor onset was monitored twice weekly by palpation. Tumor sizes were measured using a digital caliper twice weekly and the volumes were calculated as length× width2)/2. […] Animals were sacrificed when the tumor burden visibly affected the host, or when the tumors reached the IACUC pre-determined limit of 20 mm along one axis. […]

[1] = test system: ETP transfected MCF7 cells; assay: ETP transfected MCF7 tumor growth in nude mice; format: in vivo; conditions: 2.5 mg/kg cisplatin once a week
Description: FIGS. 5A-C. Antibody effects on ETP-MCF7 cells in vivo. (FIG. 5A) ETP transfected MCF7 cells (2×10^6 cells) were implanted into nude mice. An estradiol pellet (0.72 mg) was implanted into nude mice. Then (i) 20 mg/kg ETPmAb4, (ii) 10 mg/kg ETPmAb4 with 10 mg/kg control IgG, (iii) 5 mg/kg ETPmAb4 with 15 mg/kg control IgG, (iv) 2 mg/kg ETPmAb4 with 18 mg/kg control IgG, and (v) 20 mg/kg control IgG (twice a week) were injected after 10-days implantation for 5-weeks. Tumor volume was determined by caliper measurement. Data was represented as mean±SD (n=5/group), and *** p<0.0001 by ANOVA followed by Newman-Keuls multiple comparison test. (FIG. 5B) Total RNA was prepared from tumor tissues from ETP transfected MCF7, ETPmAb4 treatment mice. The EMT markers genes Twist, Snail, Cdh2 and Cdh 1 were determined by qRT-PCR, then normalized to GAPDH. E-CAD immunofluorescence staining for tumor tissues from ETP transfected MCF7 and ETPmAb4 treatment tumor. (FIG. 5C) MCF7 and ETP transfected MCF7 cells (2×10^6 cells) were implanted into nude mice. An estradiol pellet (0.72 mg) was implanted into nude mice. Then 20 mg/kg of antibody ETPmAb4 (twice a week), and 2.5 mg/kg of cisplatin (once a week) were injected after 10-days implantation for 6-weeks. Tumor volume was determined by caliper measurement. Data was represented as mean±SD (n=5/group), and *** p<0.0001 by ANOVA followed by Newman-Keuls multiple comparison test.
Animal experiments. NU/NU nude female mice were purchased from Charles River (Crl: NU-Foxnlnu; Strain Code 088 (Homozygous)). Breast cancer cells (2×10^6 cells) were implanted by intraductal injection. All cell lines were mixed on ice with 1×PBS and Matrigel. Then 100 μL of mixture was injected into mice. Tumors were measured twice a week, beginning 10 days after injection, and tumor volume was calculated by length×(width) 2/2 (mm^3).
Analysis of Tumor Progression. Tumor onset was monitored twice weekly by palpation. Tumor sizes were measured using a digital caliper twice weekly and the volumes were calculated as length× width2)/2. Inguinal tumors were weighted to determine tumor burden. Animals were sacrificed when the tumor burden visibly affected the host, or when the tumors reached the IACUC pre-determined limit of 20 mm along one axis.
As a next step, whether the anti-endotrophin antibodies effectively curb the aggressive tumor growth observed in endotrophin overexpressing MCF-7 cells was examined. To boost the growth rate of the tumor cells, these assays were performed in the presence of estradiol pellets. Cells (2×10^6 cells) were injected into nude mice and their tumor growth was monitored over time, based on a twice weekly injection of either a control monoclonal preparation, or ETPmAb4; in all cases, a total of 20 mg/kg of antibody was used. The dose dependence was tested by either injecting 20 mg/kg of control antibody, 20 mg/kg of ETPmAb4, or a mixture of the two with decreasing levels of control antibody mixed with increasing levels of ETPmAb4.
To test this, MCF7 cells were used with or without endotrophin overexpression, and the cells were transplanted into nude mice, in the presence of estradiol pellets (FIG. 5C). […] As expected, MCF7 cells harboring an excess in endotrophin grew very aggressively (FIG. 5C; red line).

MDA-MB-231 cells = assay: MDA-MB-231 tumor growth in nude mice; format: in vivo; conditions: 2.5 mg/kg cisplatin
Description: FIGS. 6A-D. The antibody effects on MDA-MB-231 cells in vivo. (FIG. 6A) MDA-MB-231 cells (2×10^6 cells) were implanted into nude mice. Then 2.5 mg/kg of cisplatin and 20 mg/kg of ETPmAb4 antibody (twice a week) were injected after 10-days implantation for 5-weeks. Tumor volume was determined by caliper measurement. The insert reflects a simplified analysis of control antibody versus ETPmAb4 with associated statistics. (FIG. 6B) MDA-MB-231 cells (2×10^6 cells) were implanted into nude mice. Treatment was started when the tumor volume was over 30 mm^3. At that point, 2.5 mg/kg of cisplatin and 20 mg/kg of ETPmAb4 antibody (twice weekly) were injected for 5-weeks. Tumor volumes were determined by caliper measurements. The insert reflects a simplified analysis of control antibody versus ETPmAb4 with associated statistics. (FIG. 6C) SKOV3 cells (2×10^6 cells) were implanted into nude mice. Then 2.5 mg/kg of cisplatin and 20 mg/kg of ETPmAb4 antibody (twice weekly) were injected 10-days after implantation for 5-weeks. Tumor volumes were determined by caliper measurements. The insert reflects a simplified analysis of control antibody versus ETPmAb4 with associated statistics. (FIG. 6D) MDA-MB-231 cells (2×10^6 cells) were implanted into nude mice. Then 2.5 mg/kg of cisplatin, 20 mg/kg of ETPmAb4 antibody and 20 mg/kg of humanized ETPmAb4 antibody (twice a week) were injected after 10-days implantation for 5-weeks. Tumor volume was determined by caliper measurement. […]
as §1, §2
After humanization, the binding affinity of hETPmAb4 to endotrophin was measured in Octet RED96. […]

[2] = biological target: T1, recombinant endotrophin protein (Homo sapiens, UniProt P12111); assay: Affinity measurement with BLI (Octet RED96); conditions: Octet (96-Red), 1:1 binding model
T1 construct: the latter consisting of 77 amino acids at the carboxy-terminal of the COL6α3 chain; CD33 signal peptide (N, cleaved yes); His-tag with EK-cleavage site (N, cleaved yes); purchased Sino Biological, Beijing, China; host or cells: HEK293
T1 sequence (P12111 3101-3177): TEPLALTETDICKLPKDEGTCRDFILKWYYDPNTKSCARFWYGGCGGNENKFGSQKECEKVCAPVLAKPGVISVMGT
Description: FIGS. 12A-B. Kinetic sensorgrams for ETP-mAb4 (FIG. 12A) and each of the humanized antibodies (FIG. 12B). […]
For antibody affinity measurement, antibody (30 μg/mL) was loaded onto the protein A biosensors for 4 min. Following a short baseline in kinetics buffer, the loaded biosensors were exposed to a series of recombinant endotrophin protein at 0.1-200 nM and background subtraction was used to correct for sensor drifting. All experiments were performed with shaking at 1,000 rpm. Background wavelength shifts were measured from reference biosensors that were loaded only with antibody. Kinetic sensorgrams for each antibody are shown in FIGS. 12A&B. ForteBio's data analysis software was used to fit the data to a 1:1 binding model to extract an association rate and dissociation rate. The Kd was calculated using the ratio of koff/kon and the estimated values of […] for endotrophin ETP-mAb4 and 4 humanized ETP-hMab4 antibodies are listed in Table 4.

How did the “lesion growth, cisplatinum” value (MCF7 cells) turn out when `N.N.[Cl][Pt][Cl]` [cisplatinum, cisplatin, reference compound] was run?
The value was “significantly curbed lesion growth”.

What about the “lesion growth, cisplatinum alone or with control antibody” value [1] of the same molecule?
Its value is “moderately reduced”.

What about the “lesion growth, cisplatinum alone or with control antibodies” value (MDA-MB-231 cells) of the same molecule?
The value was “reduced”.

B1: ETP-mAb4.4: humanized IgG1 version of ETPmAb4; VH SEQ ID NO: 161, VL SEQ ID NO: 158 (antibody, V domains shown)
VH: EVQLLESGGGLVQPGGSLRLSCAASGFSFSSGYYICWVRQAPGKGLEWIACIYGGNNNPYYANWVNGRFTTSRDNSKNTLYLQMNSLRAEDTAVYYCARKDINIGGAYELWGQGTLVTVSS
VL: DIQMTQSPSSLSASVGDRVTITCQASQSISSSYLSWYQQKPGKAPKLLIYKASTLASGVPSRFSGSGSGTDFTLTISSLQPEDFATYYCQYSDWANSYGNAFGGGTKVEIK
modifications: human IgG1 constant regions
Which results are given for B1?
kdis [2]: 3.28 E−04 1/s; kon [2]: 1.30 E+05 1/Ms

B2: ETP-mAb4.5: humanized IgG1 version of ETPmAb4; VH SEQ ID NO: 162, VL SEQ ID NO: 158 (antibody, V domains shown)
VH: EVQLLESGGGLVQPGGSLRLSCAASGFTFSSGYYICWVRQAPGKGLEWIACIYGGNSNPYYANWVNGRFTISRDNSKNTLYLQMNSLRAEDTAVYYCARKDINIGGAYELWGQGTLVTVSS
VL: DIQMTQSPSSLSASVGDRVTITCQASQSISSSYLSWYQQKPGKAPKLLIYKASTLASGVPSRFSGSGSGTDFTLTISSLQPEDFATYYCQYSDWANSYGNAFGGGTKVEIK
modifications: human IgG1 constant regions
Which kdis [2] does the source give for B2 here?
The kdis was 2.23 E−04 1/s.

And the kon [2]?
Its kon is 1.16 E+05 1/Ms.

B3: ETP-mAb4.1: humanized IgG1 version of ETPmAb4; VH SEQ ID NO: 157, VL SEQ ID NO: 158 (antibody, V domains shown)
VH: EVQLLESGGGLVQPGGSLRLSCAASGFSFSSGYYICWVRQAPGKGLEWIACIYGGNNNPYYANWVNGRFTISRDNSKNTLYLQMNSLRAEDTAVYYCARKDINIGGAYELWGQGTLVTVSS
VL: DIQMTQSPSSLSASVGDRVTITCQASQSISSSYLSWYQQKPGKAPKLLIYKASTLASGVPSRFSGSGSGTDFTLTISSLQPEDFATYYCQYSDWANSYGNAFGGGTKVEIK
modifications: human IgG1 constant regions
For B3, which kdis [2] is on record?
Its kdis is 2.35 E−04 1/s.

And the kon [2]?
Its kon is 1.16 E+05 1/Ms.

B4: ETP-mAb4.2: humanized IgG1 version of ETPmAb4; VH SEQ ID NO: 159, VL SEQ ID NO: 158 (antibody, V domains shown)
VH: EVQLLESGGGLVQPGGSLRLSCAASGFSFSSGYYICWVRQAPGKGLEWIACIYGGNSNPYYANWVNGRFTISRDNSKNTLYLQMNSLRAEDTAVYYCARKDINIGGAYELWGQGTLVTVSS
VL: DIQMTQSPSSLSASVGDRVTITCQASQSISSSYLSWYQQKPGKAPKLLIYKASTLASGVPSRFSGSGSGTDFTLTISSLQPEDFATYYCQYSDWANSYGNAFGGGTKVEIK
modifications: human IgG1 constant regions
Which kdis [2] does the source give for B4 here?
Its kdis is 3.05 E−04 1/s.

What about the kon [2] of the same molecule?
Its kon is 1.23 E+05 1/Ms.
